{"source": "the DeepSol protein solubility set"}
{"assay": "soluble on expression in E. coli; label from the status in PepcDB or PDB records"}
{"sequence": "MGSSHHHHHHSSGLVPRGSHMASASAAGGQQSFDLLVIGGGSGGLACAKEAAQLGKKVAVADYVEPSPRGTKWGLGGTCVNVGCIPKKLMHQAALLGGMIRDAHHYGWEVAQPVQHNWKTMAEAVQNHVKSLNWGHRVQLQDRKVKYFNIKASFVDEHTVRGVDKGGKATLLSAEHIVIATGGRPRYPTQVKGALEYGITSDDIFWLKESPGKTLVVGASYVALECAGFLTGIGLDTTVMMRSIPLRGFDQQMSSLVTEHMESHGTQFLKGCVPSHIKKLPTNQLQVTWEDHASGKEDTGTFDTVLWAIGRVPETRTLNLEKAGISTNPKNQKIIVDAQEATSVPHIYAIGDVAEGRPELTPTAIKAGKLLAQRLFGKSSTLMDYSNVPTTVFTPLEYGCVGLSEEEAVALHGQEHVEVYHAYYKPLEFTVADRDASQCYIKMVCMREPPQLVLGLHFLGPNAGEVTQGFALGIKCGASYAQVMQTVGIHPTCSEEVVKLHISKRSGLEPTVTGCCG", "soluble on expression in E. coli": "soluble"}
{"sequence": "MGSDKIHHHHHHMNEVLDEYRRLLSEVDHWFSRCIARSGEHIRCAEGCSECCRGLFDITLLDAALLKEGFDRLDAFTREQVLVKCRKRLAGLLRLWPEFAHPYMLNYRPEEEWELLMPDDDETPCPLLGADGRCLVYGFRPMTCRLHGLPLVDLTGEVLHDEWCTLNYVGGDPLADAGLRGEFTKIFREEVRLFRHFSERLLGQEFRELDTFIPTALLIDFTRFDWHRFAAGFSVTP", "soluble on expression in E. coli": "not soluble"}
{"sequence": "MRGSHHHHHHGSAELHLESRGGSGTQLRDGAKVATGRIICREAHTGFHVWMNERQVDGRAERYVVQSKDGRHELRVRTGGDGWSPVKGEGGKGVSRPGQEEQVFFDVMADGNQDIAPGEYRFSVGGACVVPQEDNKQGFTPSGTTGTTKLTVT", "soluble on expression in E. coli": "soluble"}
{"sequence": "MGSDKIHHHHHHMSRITDYGFLFQTTFGTSKTNLVNNIQLSQMNSSSVQKQLKAAGIDTNSKKYKAALSEMMKNGNGAMFTNVQAIKNLMSQYDKNGDWIDPNTGLTGLAVTDENRNSYKHIISIPESSREEMFELAKKEFLNENGTLNGDTTKRESVYNNLYRKMDKDDRLSAGWTMEQYEHQYRQAFAEAAKAADPTWKAGKPIPAGALDGITRESVESGKKSVDIKI", "soluble on expression in E. coli": "not soluble"}
{"sequence": "MGSDKIHHHHHHMPRTILKDEHWTRLKPILLELNIYDKGNLRNTVEGVLYRMRVGCPWRDLPEHFGKPNTVYKAYQRWFRSNKLIALFALLIKDSDCEWVFIDGTHIKAHQHSSIGHENMQGISKSVAGRATKIHLAVDAHGNPITFILSDGTTHDVKVAPDLIDKDLSDTDILCADKGYDSDALRTHIKQAGCFNNIPRRRNTKSTNNHMDWHLYKTRHLVENAFAKLKHYRAVATRFDKLKQSYENTVALACAYLWLKL", "soluble on expression in E. coli": "not soluble"}
{"sequence": "SMSNANPFFSQSLAERDASVRGAILKELERQQSQVELIASENIVSRAVLDAQGSVLTNKYAEGYPGKRYYGGCEFADEVEALAIERVKRLFNAGHANVQPHSGAQANGAVMLALAKPGDTVLGMSLDAGGHLTHGAKPALSGKWFNALQYGVSRDTMLIDYDQVEALAQQHKPSLIIAGFSAYPRKLDFARFRAIADSVGAKLMVDMAHIAGVIAAGRHANPVEHAHVVTSTTHKTLRGPRGGFVLTNDEEIAKKINSAVFPGLQGGPLMHVIAGKAVAFGEALTDDFKTYIDRVLANAQALGDVLKAGGVDLVTGGTDNHLLLVDLRPKGLKGAQVEQALERAGITCNKNGIPFDPEKPTITSGIRLGTPAGTTRGFGAAEFREVGRLILEVFEALRTNPEGDHATEQRVRREIFALCERFPIY", "soluble on expression in E. coli": "soluble"}
{"sequence": "MSTFKITIIGGGSSYTPELVDGLIQRIEQLPVTELALVDVEQGRQKVEIIAALTQRMLARHGLEQVKVSVHYSLDEAIRGARFVLTQFRVGQLPARAADERLGLKYNLLGQETTGIGGFAKALRTIPVMLDIAANVERLAPDAWIINFTNPAGIVTEAVSRYTKAKIIGLCNVPISMHHMIAKLLQAPYEDLQLRFAGLNHMVWVHEVLQRGKYVTADVLKMLCDGASLSMNNIKEAPWPPEFLQAMGAIPCPYHRYFYQTQDMLAEEMAAAAERGTRAEQVMQVEKELFALYADPHLDTKPEQLSFRGGSFYSEVALELIRAIHNNLGTQLVVNTTNRGAIRGLSDDSVVETNCIIDAKGAHPLTFGPLPVSMHGLTQQVKAYERLTIDAAVHGDRRSALLALVTNPLIANASIAQPLLEEVLQVNKPYLPQFSGL", "soluble on expression in E. coli": "not soluble"}
